The assay deals with VP11-His (pET-28b/VP11-His) (White spot syndrome virus (WSSV-TW strain)). The assay is described as follows: cross-linking; VP11-His from clear E. coli lysate held on Ni-NTA beads, washed, 0.05% glutaraldehyde in PBS passed through the column, eluted with 250 mM imidazole, SDS-PAGE and anti-His immunoblot.

For “VP11-His (pET-28b/VP11-His) (natural protein)”, the stoichiometry N was found to be 2.

The stoichiometry N is a count of units in the complex or per binding partner.

These data come from paper PMC3897518.
